Read-outs that look alike come from different tables or passages of the source.
Experiments:
[1] = target: high-affinity receptor for bFGF on bovine capillary endothelial (BCE) cells (bovine (endogenous in BCE cells)); experiment: radioligand binding
[2] = target: high-affinity receptor for bFGF on bovine capillary endothelial (BCE) cells (bovine (endogenous in BCE cells)); experiment: radioligand binding; remark: listed apart in the source

- fmol bFGF bound to high affinity sites [1]: 2.6 fmol
- fmol bFGF bound to high affinity sites [2]: 3.1 fmol
Substance: 125I-labeled basic fibroblast growth factor (125I-bFGF) (from UniProt P09038 1-288) (ligand)
